Positions count from the first letter of the chain named.

Some targets named below: 4A; 7F; 1F; 5A; 3A; 6L; 2M.
What all share (test): flow cytometry on peptide-pulsed T2 cells, scFv 100 nM
A general note: Flow cytometry measures light scatter and fluorescence of single cells or particles in a stream.

B1: NYA-1143 (scFv)
scFv: GEVQLVESGGGVVQPGRSLTPSCSASGFSIRSYDIHWVRLAPGKGLEWVATISYDGSQKYFADSVKGRFTIFRDESENMVYLQMSGLRVEDTAVYHCARGSSGHYEAFDIWGQGTMVTVSSGGGGSGGGGSGGGGSQSVLTQPPSVSAAPGQKVTISCSGSSSNIGNWYVSWYQQLPGTAPKLLIYDNNKRPSGIPDRFSGSKSGTSATLGITGLQTGDEADYYCGTWDSSLSAPWVFGGGTKVTVLGAAAGAGGDYKDDDDKGAAAHHHHHH
In the case of B1, the standardized gMFI with 4A turned out to be 5.91; with 7F, 4.26; with 1F, 1.77.

B2: NYA-2143 (scFv)
scFv: B1 scFv with Q175R
Consider B2, for which the standardized gMFI with 5A stood at 4.3; with 7F, 5.26.

B3: NYA-2023 (scFv)
scFv: B1 scFv with L40Q
B3 returned a standardized gMFI in the test with 5A of 1.21.

B4: NYA-1163 (scFv)
scFv: B1 scFv with W168N
Regarding B4, the standardized gMFI in the test with 3A was 1.7; with 6L it was 1.74; with 2M it was 1.85; with 7F it was 1.11.

B5: NYA-1154 (scFv)
scFv: B1 scFv with I35M, L40Q, G103N, W168N, Q175R, T227A
On to B5, for which the values for the standardized gMFI with 5A and in the test with 1F were 1.12 and 3.98, respectively.

B6: NYA-2035 (scFv)
scFv: B1 scFv with Y169K
As to B6, the standardized gMFI in the test with 4A came out at 2.16; with 5A, 2.27.

B7: NYA-2048 (scFv)
scFv: GQVQLVESGGGVVQPGRSLRLSCAASGFSIRSYDMHWVRQAPGKGLEWVATISYDGSQKYYADSVKGRFTISRDNSKNTLYLQMSSLRAEDTAVYHCARGSSGHYEAFDIWGQGTLVTVSSGGGGSGGGGSGGGGSQSVLTQPPSASGTPGQRVTISCSGSSSNIGNWYVSWYQQLPGTAPKLLIYDNNKRPSGVPDRFSGSKSGTSASLAISGLQSEDEADYYCGTWDSSLSAPWVFGGGTKLTVLGAAAGAGGDYKDDDDKGAAAHHHHHH
The molecule B7 displayed a standardized gMFI with 7F of 1.46.

B8: NYA-2045 (scFv)
scFv: B7 scFv with Q2E, V12L, R17G, M35I, Q40L, N75E, S85N
For the molecule B8, the figures for the standardized gMFI with 4A and with 5A were 1.17 and 0.94, respectively.

B9: NYA-2047 (scFv)
scFv: GQVQLVESGGGVVQPGRSLRLSCAASGFSIRSYDMHWVRQAPGKGLEWVATISYDGSQKYYADSVKGRFTISRDNSKNTLYLQMSSLRAEDTAVYHCARGSSGHYEAFDIWGQGTLVTVSSGGGGSGGGGSGGGGSQSVLTQPPSVSAAPGQKVTISCSGSSSNIGNWYVSWYQQLPGTAPKLLIYDNNKRPSGIPDRFSGSKSGTSATLGITGLQTGDEADYYCGTWDSSLSAPWVFGGGTKVTVLGAAAGAGGDYKDDDDKGAAAHHHHHH
Take B9: the standardized gMFI in the test with 5A stood at 1.03; in the test with 7F, 3.11.

B10: NYA-2044 (scFv)
scFv: B9 scFv with Q2E, V12L, R17G, M35I, Q40L, N75E, S85N
Regarding B10, the standardized gMFI with 5A was 2.2.

The values are drawn from patent publication US20230348616A1.
